Measurements taken from US20250326838A1 (CSPC MEGALITH BIOPHARMACEUTICAL, published 2025).

T1: Siglec15-ECD-His (human, UniProt Q6ZMC9 20-263)
T1 construct: Human Siglec15 (Uniprot Q6ZMC9) extracellular domain with 7 His, expressed in Hek293F; also called Sigle15-ECD-His protein; Siglec15-His protein
T1 sequence: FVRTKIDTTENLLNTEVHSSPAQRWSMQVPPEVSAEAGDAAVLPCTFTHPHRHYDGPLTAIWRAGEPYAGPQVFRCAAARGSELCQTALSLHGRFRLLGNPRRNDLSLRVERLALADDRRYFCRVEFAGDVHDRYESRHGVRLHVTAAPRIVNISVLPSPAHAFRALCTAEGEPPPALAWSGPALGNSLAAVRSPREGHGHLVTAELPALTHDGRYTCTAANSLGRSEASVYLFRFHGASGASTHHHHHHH

T2: His-tagged cynomolgus monkey Siglec15 protein (cynomolgus monkey, UniProt A0A2K5UY47 20-262)
T2 construct: not shown: His tag
T2 sequence: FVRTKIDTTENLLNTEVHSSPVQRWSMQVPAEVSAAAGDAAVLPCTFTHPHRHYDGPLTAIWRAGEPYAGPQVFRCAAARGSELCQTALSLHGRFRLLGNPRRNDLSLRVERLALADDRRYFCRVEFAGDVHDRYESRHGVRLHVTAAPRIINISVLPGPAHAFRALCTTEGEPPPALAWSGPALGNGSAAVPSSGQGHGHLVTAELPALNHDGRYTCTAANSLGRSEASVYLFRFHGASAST


Tests used:
Siglec15-ECD-His [1] = biological target: T1, Siglec15-ECD-His; experiment: BLI (ForteBio), Siglec15-ECD-His on HIS1K sensor, antibody as analyte
Protocol: In this experiment, a HIS1K biosensor was used to bind the ligand (Sigle15-ECD-His protein) followed by the analyte. Human Sigle15-ECD-His protein was diluted to 5 μg/ml and immobilized on the biosensor to a binding response threshold of 0.3 nm. After the 120s baseline step, the sensors were respectively immersed in the analytes of anti-Siglec15 antibodies 1-7F4-IgG1, 1-15D1-IgG1 and 1-10E5-IgG1 diluted in 2-fold gradient dilution with 0.02% PBST buffer, and the initial antibody concentration was 100 nM, 7 concentration gradients were set respectively. Human IgG1 (hIgG1) (B109801, Baiying Biotechnology Co., Ltd.) was used as a reference control, and 5G12-IgG1 was used as a positive control to conduct an affinity analysis experiment. The binding time of ligand and analyte was 120s, and the dissociation time was 300s. The raw data were imported into the analysis software, the zero concentration control was subtracted, and the reference channel was subtracted to eliminate the volume effect. The affinity data of the antigen and antibody were calculated by the analysis software regression according to the binding curve.

Siglec15-ECD-His [2] = biological target: T1, Siglec15-ECD-His; experiment: ELISA, His-tagged human Siglec15 coated
Protocol: (§1) In order to evaluate the cross-species recognition properties of antibodies, the cross recognition of purified 1-15D1, 1-7F4, 14A7 and 1-10E5 monoclonal antibodies with human, cynomolgus monkey and mouse Siglec15 was tested. ELISA test was carried out by coating the microtiter plate with His-tagged human, cynomolgus monkey and mouse Siglec15 proteins and adding 1-15D1, 1-7F4, 14A7 and 1-10E5 antibodies at concentrations of 5000 ng/ml, 1666.7 ng/ml, 555.6 ng/ml, 185.2 ng/ml, 61.7 ng/ml, 20.6 ng/ml, 6.9 ng/ml, 2.3 ng/ml, 0.8 ng/ml, 0.25 ng/ml and 0.1 ng/ml respectively. […] The 14A7 and 1-10E5 antibodies could not only bind human and monkey Siglec15 proteins, but also bind mouse Siglec 15 proteins (FIG. 5). See Table 1 and FIG. 3-FIG. 5 for the EC₅₀ values of affinities for various Siglec15.

[3] = biological target: His-tagged mouse Siglec15 protein (mouse); experiment: ELISA, His-tagged mouse Siglec15 coated
Protocol: as §1

[4] = biological target: T2, His-tagged cynomolgus monkey Siglec15 …; experiment: ELISA, His-tagged cynomolgus monkey Siglec15 coated
Protocol: as §1

Siglec15-ECD-Fc = biological target: T3, Siglec15-ECD-Fc (human); experiment: flow cytometry, single-point blocking by hybridoma supernatant of Siglec15-ECD-Fc (2 ug/ml) binding to LRRC4C-Hek293 cells
T3 construct: Human Siglec15 extracellular domain fused to human IgG1 Fc, expressed in Hek293F; also called Siglec15-ECD-Fc fusion protein
Source text: When the hybridoma cells grew to a certain amount, the Siglec15-His protein was coated onto a 96-well microtiter plate, and the mouse anti-Siglec15 serum was used as a positive control, and the hybridoma supernatant was screened by ELISA to select positive clones. […] The experimental results were shown in FIG. 2, and the specific method was as follows. The inventors conducted subclonal screening of these 10 strains of cells by the limiting dilution method, and finally kept the obtained monoclonal positive cell strains separately, and the supernatant of hybridoma cells was collected for purification by ProteinG.
By using the Lipofectamine system, the human LRRC4C (amino acid sequence set forth in SEQ ID NO: 5) plasmid was transfected into Hek293 cells. After 48 hours, G418 (800 μg/mL) was added to screen for 10-14 days to obtain a cell line stably expressing LRRC4C. Cells were collected, washed once with PBS buffer, blocked with PBS containing 2% FBS for 1 h at room temperature. The hybridoma cell supernatant was added in 50 μl/well; then the diluted Siglec 15-ECD-Fc protein (2 ug/ml) was added in 50 μl/well; mouse IgG was used as a negative control. The cells were incubated at 4° C. for 50 min, then washed three times with PBS buffer containing 0.2% FBS, then diluted with Alexa Fluor 488-labeled goat anti-human IgG in PBS containing 2% FBS, and incubated at 4° C. in the dark for 50 min, and washed three times with PBS buffer containing 0.2% FBS; finally, the cells were resuspended in 200 μL PBS and analyzed by flow cytometry. The average fluorescence reading of 10,000 cells for each sample was recorded, wherein the FITC fluorescence intensity was taken as the abscissa and the cell number as the ordinate, and the voltage parameters were adjusted so that the blank control was at the origin of the coordinate axis. The percentage result of hybridoma cell supernatant for blocking the binding of Siglec15-ECD-Fc protein to LRRC4C was calculated.

Row | Binder | Kd (Siglec15-ECD-His [1]) | koff (Siglec15-ECD-His [1]) | kon (Siglec15-ECD-His [1]) | EC50 (Siglec15-ECD-His [2]) | EC50 [3] | EC50 [4] | binding result (Siglec15-ECD-Fc)
1 | 1-10E5 monoclonal antibody (antibody, V domains shown) VH: DVKLVESGGGLVKPGGSLKLSCVVSGLTFSRYTMSWVRQTPEKRLEWVATISSGGNSTYYPDSVKGRFTISRDDAKDTLYLQMSSLKSEDTAMYYCTNYGYFFDYWGQGTTLTVSS VL: DIQMTQSPASLSASVGETVTITCRASENIYSFLAWYQQKQGKSPQLLVYNAKTLAEGVPSRFSGSGSGTQFSLKINSLQPEDFGSYYCQHHYDRPLTFGAGTKLELK |  |  |  | 7.21 ng/mL | 9.61 ng/mL | 9.49 ng/mL | binds
2 | 1-10E5-IgG1 human-mouse chimeric anti-Siglec15 antibody (antibody, V domains shown) VH: DVKLVESGGGLVKPGGSLKLSCVVSGLTFSRYTMSWVRQTPEKRLEWVATISSGGNSTYYPDSVKGRFTISRDDAKDTLYLQMSSLKSEDTAMYYCTNYGYFFDYWGQGTTLTVSS VL: DIQMTQSPASLSASVGETVTITCRASENIYSFLAWYQQKQGKSPQLLVYNAKTLAEGVPSRFSGSGSGTQFSLKINSLQPEDFGSYYCQHHYDRPLTFGAGTKLELK | < 0.001 nM | < 1e-07 s⁻¹ | 1.04e+06 M⁻¹ s⁻¹ |  |  |  | 
3 | 1-7F4 monoclonal antibody (antibody, V domains shown) VH: EVQLQQSGPELVKPGASVKMSCKASGYTFTTYVMHWVKQKPGQGLEWIGYINPYNDKTKYNEKFKGKATLTSDKSSSTAYMEVSRLTSEDSAVYYCGSGYDAMDYWGQGTSVTVSS VL: DIQMTQSPASLSVSVGETVTITCRASENIYSHLAWYQQKQGKSPQLLIYSATNLADGVPSRFNGSGSGTQYSLKINSLQSEDFGSYYCQHFWGTPWTFGGGTKLEIK |  |  |  | 10 ng/mL |  | 14.8 ng/mL | binds
4 | 1-7F4-IgG1 human-mouse chimeric anti-Siglec15 antibody (antibody, V domains shown) VH: EVQLQQSGPELVKPGASVKMSCKASGYTFTTYVMHWVKQKPGQGLEWIGYINPYNDKTKYNEKFKGKATLTSDKSSSTAYMEVSRLTSEDSAVYYCGSGYDAMDYWGQGTSVTVSS VL: DIQMTQSPASLSVSVGETVTITCRASENIYSHLAWYQQKQGKSPQLLIYSATNLADGVPSRFNGSGSGTQYSLKINSLQSEDFGSYYCQHFWGTPWTFGGGTKLEIK | 0.06 nM | 3.42e-05 s⁻¹ | 570000 M⁻¹ s⁻¹ |  |  |  | 
5 | 1-15D1 monoclonal antibody (antibody, V domains shown) VH: EVQLQQSGPELVKPGASVKMSCKASGYTFTTYVMHWVKQKPGQGLEWIGYINPYNDNTKYNEKFKGKATLTSDKSSSTAYMELSSLTSEDSAVYYCGSGYDAMDYWGQGTSVTVSS VL: DIQMAQSPASLSVSVGETVTITCRTSENIYSHLAWYQQKQGKSPQLLVYSATNLADGVPSRFNGSGSGTQYSLKINSLQSEDFGSYYCQHFWGTPWTFGGGTKLEIK |  |  |  | 4.98 ng/mL |  | 9.07 ng/mL | binds

The remaining lines, values ahead:

Row | Kd (Siglec15-ECD-His [1]) | koff (Siglec15-ECD-His [1]) | kon (Siglec15-ECD-His [1]) | EC50 (Siglec15-ECD-His [2]) | EC50 [3] | EC50 [4] | binding result (Siglec15-ECD-Fc) | Binder
6 | 0.261 nM | 0.000178 s⁻¹ | 683000 M⁻¹ s⁻¹ |  |  |  |  | 5G12-IgG1 control antibody (antibody, V domains shown) VH: QVQLQQPGAELVKPGASVKMSCKASGYTFTSYWITWVIQRPGQGLEWIGDIYCGSDTMHYNEKFKNKATLTVDTSSSTAYMQLSSLTSEDSAVYYCARWWDYGSSYDYFDYWGQGTTLTVSS VL: DIKMTQSPSSMYASLGERVTITCKASQDINSYLSWFQQKPGKSPKTLIYRANRLVDGVPSRFSGSGSGQDYSLTISSLEYEDMGIYYCLQYDEFPYTFGGGTKLEIKR
7 | < 0.001 nM | < 1e-07 s⁻¹ | 436000 M⁻¹ s⁻¹ |  |  |  |  | 1-15D1-IgG1 human-mouse chimeric anti-Siglec15 antibody (antibody, V domains shown) VH: EVQLQQSGPELVKPGASVKMSCKASGYTFTTYVMHWVKQKPGQGLEWIGYINPYNDNTKYNEKFKGKATLTSDKSSSTAYMELSSLTSEDSAVYYCGSGYDAMDYWGQGTSVTVSS VL: DIQMAQSPASLSVSVGETVTITCRTSENIYSHLAWYQQKQGKSPQLLVYSATNLADGVPSRFNGSGSGTQYSLKINSLQSEDFGSYYCQHFWGTPWTFGGGTKLEIK
8 |  |  |  | 8.97 ng/mL | 9.99 ng/mL | 8.51 ng/mL | binds | 14A7 monoclonal antibody (antibody, V domains shown) VH: DVQLQESGPGLVKPSQSLSLTCTVTGYSITSDFAWNWIRQFPGNKLEWMGYIRFSGSTTYKPTLKSRISITRDTSKNQFFLQLNSVTTEDSATYYCAREDYDGLFDYWGQGTTLTVTS VL: DVLMTQTPLSLPVSLGDHASISCRSSQTILHSNGNTYLDWYLQKPGQSPKLLIYKVSNRFSGVPDRFSGSGSGTDFTLKISRVEAEDLGVYYCFQGSHVPYTFGGGTKLEIK
